The chains are these.
B1: Ubiquitin-like modifier-activating enzyme ATG7 (Saccharomyces cerevisiae), P38862 (parent)
chain: MSSERVLSYAPAFKSFLDTSFFQELSRLKLDVLKLDSTCQPLTVNLDLHNIPKSADQVPLFLTNRSFEKHNNKRTNEVPLQGSIFNFNVLDEFKNLDKQLFLHQRALECWEDGIKDINKCVSFVIISFADLKKYRFYYWLGVPCFQRPSSTVLHVRPEPSLKGLFSKCQKWFDVNYSKWVCILDADDEIVNYDKCIIRKTKVLAIRDTSTMENVPSALTKNFLSVLQYDVPDLIDFKLLIIRQNEGSFALNATFASIDPQSSSSNPDMKVSGWERNVQGKLAPRVVDLSSLLDPLKIADQSVDLNLKLMKWRILPDLNLDIIKNTKVLLLGAGTLGCYVSRALIAWGVRKITFVDNGTVSYSNPVRQALYNFEDCGKPKAELAAASLKRIFPLMDATGVKLSIPMIGHKLVNEEAQHKDFDRLRALIKEHDIIFLLVDSRESRWLPSLLSNIENKTVINAALGFDSYLVMRHGNRDEQSSKQLGCYFCHDVVAPTDSLTDRTLDQMCTVTRPGVAMMASSLAVELMTSLLQTKYSGSETTVLGDIPHQIRGFLHNFSILKLETPAYEHCPACSPKVIEAFTDLGWEFVKKALEHPLYLEEISGLSVIKQEVERLGNDVFEWEDDESDEIA
partner: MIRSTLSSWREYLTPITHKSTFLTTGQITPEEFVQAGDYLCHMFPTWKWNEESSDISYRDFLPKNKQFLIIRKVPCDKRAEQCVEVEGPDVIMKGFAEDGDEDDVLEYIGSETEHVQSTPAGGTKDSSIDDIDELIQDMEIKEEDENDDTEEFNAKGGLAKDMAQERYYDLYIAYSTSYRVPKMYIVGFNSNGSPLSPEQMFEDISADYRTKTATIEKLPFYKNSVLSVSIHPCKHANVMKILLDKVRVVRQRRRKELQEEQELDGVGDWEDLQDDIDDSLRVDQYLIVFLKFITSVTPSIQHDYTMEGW
B2: Ubiquitin-like modifier-activating enzyme ATG7 (Saccharomyces cerevisiae), P38862 (parent)
chain: B1 chain
partner: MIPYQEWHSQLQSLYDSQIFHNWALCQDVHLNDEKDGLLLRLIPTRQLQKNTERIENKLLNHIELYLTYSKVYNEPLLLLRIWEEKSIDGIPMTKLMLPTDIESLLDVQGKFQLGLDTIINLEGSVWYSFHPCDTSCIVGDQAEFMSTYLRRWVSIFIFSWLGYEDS
B3: Autophagy-related protein 3 (Saccharomyces cerevisiae), P40344 (parent)
chain: B1 partner
partner: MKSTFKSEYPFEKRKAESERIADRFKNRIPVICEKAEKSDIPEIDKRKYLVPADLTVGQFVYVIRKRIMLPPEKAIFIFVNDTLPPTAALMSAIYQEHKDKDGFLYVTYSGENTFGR

Variants of B1 are the subject of one test. The conditions noted are these: with atg3_yeast ATG3, P40344.
Turning to F16A;F61A, the “effect of a mutation on the interaction” value is “decreasing interaction strength”.

C507A: the “effect of a mutation on the interaction” value was “disrupting interaction strength”.

In the case of P283D, the “effect of a mutation on the interaction” value is “decreasing interaction strength”.

As to V285A, the “effect of a mutation on the interaction” value is “decreasing interaction strength”.

Turning to K14A;F16A;D18A, the “effect of a mutation on the interaction” value was “decreasing interaction strength”.

The variants in a further test derive from B2. The conditions noted are these: with atg10_yeast ATG10, Q07879.
For the variant Y137A, the “effect of a mutation on the interaction” value is “decreasing interaction strength”.

With C507A, the “effect of a mutation on the interaction” value is on record as “disrupting interaction strength”.

As for V285D, the “effect of a mutation on the interaction” value is given as “disrupting interaction strength”.

A further test covers variants of B3. The conditions noted are these: with atg8_yeast ATG8, P38182.
Turning to MIRSTLSSWREYLTPITHKSTFLTTGQITPEEFVQAGDYLCHMFPTWKWNEESSDISYRDFLPKNKQFLIIAAVPCDKRAEQCVEVEGPDVIMKGFAEDGDEDDVLEYIGSETEHVQSTPAGGTKDSSIDDIDELIQDMEIKEEDENDDTEEFNAKGGLAKDMAQERAYDLYIAYSTSYRVPKMYIVGFNSNGSPLSPEQMFEDISADYRTKTATIEKLPFYKNSVLSVSIHPCKHANVMKILLDKVRVVRQRRRKELQEEQELDGVGDWEDLQDDIDDSLRVDQYLIVFLKFITSVTPSIQHDYTMEGW [R72A;K73A;Y168A], the “effect of a mutation on the interaction” value was “disrupting interaction strength”.

(Values after IntAct's records for PubMed 23142976.)
